Source: patent US20200283521A1 (GRANULAR THERAPEUTICS, published 2020)
Changes are numbered by the printed parent chain. In names and notes the source's numbering stands. Like-named read-outs stand apart in the source and are kept apart here.

Experiments:
[1] = biological target: T1, cynomolgus monkey C-KIT-Fc (cynomolgus monkey); test: direct titration ELISA on coated C-KIT-Fc, IgG1 format
T1 construct: also called cyno C-KIT-Fc

[2] = biological target: T2, human C-KIT, full length, on cells (human, UniProt P10721 26-976); test: flow cytometry, C-KIT-transfected CHO-K1 cells, IgG1 format
T2 construct: full-length cDNA stably transfected in CHO-K1; also used here for endogenous C-KIT of TF-1 cells; also called human C-KIT+ CHO-K1 cells; C-KIT on TF-1 cells

[3] = biological target: T3, cynomolgus monkey C-KIT, full length, on CHO-K1 cells (cynomolgus monkey); test: as above
T3 construct: whole, on cells; also called cyno C-KIT+ CHO-K1 cells

[4] = biological target: T2, human C-KIT, full length, on cells; test: cell-based or functional assay
[5] = biological target: T2, human C-KIT, full length, on cells; test: cell-based or functional assay; remark: listed apart in the source
[6] = biological target: T3, cynomolgus monkey C-KIT, full length, …; test: cell-based or functional assay
[7] = biological target: T1, cynomolgus monkey C-KIT-Fc; test: HTRF epitope competition in solution; competitor IgG1-3M titrated against terbium-labelled h37M IgG1 on cyno C-KIT-Fc
[8] = biological target: T4, human C-KIT-Fc (human, UniProt P10721 26-524); test: HTRF epitope competition in solution; competitor IgG1-3M titrated against terbium-labelled h37M IgG1 on biotinylated human C-KIT-Fc
T4 construct: also called biotinylated human C-KIT-Fc; not shown: Fc part not described

[9] = biological target: T2, human C-KIT, full length, on cells; test: flow cytometry, C-KIT-transfected CHO-K1 cells, IgG1 format; remark: listed apart in the source
[10] = biological target: T4, human C-KIT-Fc; test: HTRF competition on human C-KIT-Fc against terbium-labelled h37M IgG1
[11] = biological target: T2, human C-KIT, full length, on cells; test: flow cytometry, C-KIT-transfected CHO-K1 cells, IgG1 format; remark: listed apart in the source
[12] = biological target: T4, human C-KIT-Fc; test: HTRF competition on human C-KIT-Fc against terbium-labelled h37M IgG1; remark: listed apart in the source
[13] = biological target: T4, human C-KIT-Fc; test: HTRF epitope competition in solution; unlabelled h37M IgG1-3M titrated against terbium-labelled h37M IgG1 on biotinylated human C-KIT-Fc

B1: chimeric anti-C-KIT antibody m37M, human IgG1 (antibody, V domains shown)
VH: QVQLKQSGAELVRPGASVKLSCKASGYTFTDYYINWVKQRPGQGLEWIARIYPGSGNTYYNEKFKGKATLTAEKSSSTAYMQLSSLTSEDSAVYFCARGVYYFDYWGQGTTLTVSS
VL: DIVMTQSQKFMSTSVGDRVSVTCKASQNVRTNVAWYQQKPGQSPKALIYSASYRYSGVPDRFTGSGSGTDFTLTISNVQSEDLADYFCQQYNSYPRTFGGGTKLEIKR
- EC50 (read off the curve) [1]: ~0.1 mg/L
- EC50 (read off the curve) [2]: ~0.2 mg/L
- EC50 (read off the curve) [3]: ~0.2 mg/L

B2: MH1, IgG1-3M format (antibody, V domains shown)
VH: QVQLVQSGAEVKKPGASVKVSCKASGYTFTDYYMNWVRQAPGQGLEWMGRIYPGSGNTYYAQKFQGRVTMTRDTSTSTVYMELSSLRSEDTAVYYCARGVYYYDYWGQGTLVTVSS
VL: DIQMTQSPSSLSASVGDRVTITCRASQGIRTNLAWFQQKPGKAPKSLIYAASSLQSGVPSRFSGSGSGTDFTLTISSLQPEDFATYYCQQYNSYPRTFGGGTKVEIK
notes: human IgG1 with L234A/L235A/G237A; also called C-KIT-MH1
- TF-1 proliferation, fold less potent than h37M [4]: 26.5 fold
- Human C-KIT CHO FabZAP IC50 (pM) [5]: 8.7 pM
- TF-1 FabZAP IC50 (pM) [5]: 51.1 pM
- TF-1 proliferation IC50 [5]: 2.86 nM
- Cyno C-KIT CHO FabZAP IC50 (pM) [6]: 14 pM
- IC50 (read off the curve) [7]: ~0.02 mg/L
- IC50 (read off the curve) [8]: ~0.01 mg/L

B3: MH7 (antibody, IgG1, V domains shown)
VH: B2 VH
VL: B2 VL with A50S, R96H
notes: IgG1
- binding result [9]: binds
- binding result [10]: binds

B4: MH3 (antibody, IgG1, V domains shown)
VH: B2 VH
VL: B2 VL with A50S, S93A
notes: IgG1
- binding result [11]: binds
- binding result [12]: binds

B5: MH5, IgG1-3M format (antibody, V domains shown)
VH: B2 VH
VL: B2 VL with A50S, N92A, S93N
notes: human IgG1 with L234A/L235A/G237A
- IC50 (read off the curve) [7]: ~0.02 mg/L
- IC50 (read off the curve) [8]: ~0.03 mg/L

B6: MH2 (antibody, IgG1, V domains shown)
VH: B2 VH
VL: B2 VL with A50S, N92A
notes: IgG1
- binding result [11]: binds
- binding result [12]: binds

B7: h37M-IgG1-3M (antibody, V domains shown)
VH: QVQLVQSGAEVKKPGASVKLSCKASGYTFTDYYINWVRQAPGKGLEWIARIYPGSGNTYYNEKFKGRATLTADKSTSTAYMQLSSLRSEDTAVYFCARGVYYFDYWGQGTTVTVSS
VL: DIVMTQSPSSLSASVGDRVTITCKASQNVRTNVAWYQQKPGKAPKALIYSASYRYSGVPDRFTGSGSGTDFTLTISSLQPEDFADYFCQQYNSYPRTFGGGTKVEIK
notes: human IgG1 with L234A/L235A/G237A; also called C-KIT-h37M
- IC50 (read off the curve) [13]: ~0.01 mg/L
